From US10450573B2, “Compositions and methods for regulation of gene expression with, and detection of, folinic acid and folates” (The Board of Trustees of the Leland Stanford Junior …, priority 2014, dated 2019)

Assays:
[1] = Surface plasmon resonance aptamer binding assay, (6S)-folinic acid; settings: SPR, 25° C., selection buffer pH 7.4, 5 mM MgCl2
Method: (§1) Surface plasmon resonance characterization of aptamer binding properties. Nucleic acid aptamer preparation. RNA aptamers were prepared by PCR amplification of DNA template sequences (Table 4, Integrated DNA Technologies, Coralville, Iowa) using forward and reverse primers Biacore-fwd and Biacore-rev, respectively, followed by transcription of the PCR product using the MEGAshortscript T7 transcription kit (Life Technologies) and purification of the transcription product using the RNA Clean & Concentrator kit (Zymo Research, Irvine, Calif.), according to the manufacturers' instructions. Aptamers were resuspended in selection buffer, denatured at 65° C. for 5 min, and cooled to room temperature directly before use.
(§2) Sensor chip surface generation. Experiments were performed on a Biacore X100 instrument (GE Healthcare) at 25° C. A CM5 sensor chip (GE Healthcare) was equilibrated with HBS-N buffer. The DNA linker strand (5′-AmMC6-[…]) (Integrated DNA Technologies) (SEQ ID NO:133), with an amino modified 6-carbon linker on the 5′ end, was immobilized to the chip surface. The carboxymethylated dextran surface of the CM5 chip was activated for 7 min at a flow rate of 10 μL/min using a 1:1 volume ratio of 0.4 M 1-ethyl-3-(3-dimethylaminopropyl) carbodiimide (GE Healthcare) and 0.1 M N-hydroxysuccinimide (GE Healthcare). A molar ratio of 1:30 of DNA strand to hexadecyltrimethylammonium bromide (Sigma-Aldrich, St. Louis, Mo.) was diluted in 10 mM HEPES buffer (Sigma-Aldrich) to a final concentration of 20 μM and 0.6 mM, respectively, and injected over the activated surface for 10 min at a flow rate of 5 μL/min. Excess activated groups were blocked by an injection of 1 M ethanolamine (GE Healthcare), pH 8.5, for 7 min at a flow rate of 10 μL/min. The immobilization reaction was performed sequentially on both flow cells (FC1, FC2) and yielded approximately 4,000 RU of the DNA strand.
(§3) Aptamer binding assay. The Biacore X100 instrument was primed three times with running buffer prior to all binding assays. For each assay, three startup cycles were performed to stabilize the sensorgram baseline. For each startup cycle, the aptamer (˜40-70 ng/μL, ˜3 μM) was captured onto the sample flow cell (FC2) for 40 s at a flow rate of 5 μL/min. 25 mM NaOH (GE Healthcare) was injected for 30 s at a flow rate of 30 μL/min over both flow cells to regenerate the sensor surface. A dilution series of (6R)- or (6S)-folinic acid (Schircks Laboratories, Jona, Switzerland) was prepared in selection buffer and filtered through a 0.2 μm membrane (Pall Corporation, Port Washington, N.Y.). For each concentration sample, the aptamer was captured onto the sample flow cell (FC2) for 40 s at a flow rate of 5 μL/min, the folinic acid solution was injected over both flow cells at a flow rate of 30 μL/min to monitor target association, and selection buffer was injected over both flow cells at a flow rate of 30 μL/min to monitor target dissociation. Association and dissociation phase lengths used were chosen based on time needed to reach equilibrium. Aptamer and folinic acid were removed from the sensor surface by injecting 25 mM NaOH for 30 s at a flow rate of 30 μL/min over both flow cells.
(§4) Data processing and analysis were performed using Biacore X100 Evaluation Software version 2.0 (GE Healthcare). A double-referencing method was performed to process all datasets. Data from the sample flow cell (FC2) were referenced first by subtracting data from the reference flow cell (FC1) to correct for bulk refractive index changes, nonspecific binding, injection noise, matrix effects, and baseline drift. Reference-subtracted data (FC2−FC1) were double-referenced with a blank injection of running buffer to account for any systematic drift over the course of the injection. Double-referenced data were fit to a 1:1 binding model for kinetic analysis or steady-state affinity model for thermodynamic analysis. […]

[2] = SPR binding to (6R,S)-5-formyl-5,6,7,8-tetrahydropteroic acid; settings: ligand is mixture of (6R) and (6S) diastereomers
[3] = SPR equilibrium binding to folate derivative (6R)-tetrahydrobiopterin; settings: N.D. = non-detectable levels of binding, read-out: KD, (6R)-Tetrahydrobiopterin (THB)
[4] = Surface plasmon resonance aptamer binding assay, (6R)-folinic acid; settings: for Selectivity: between (6R)- and (6S)-folinic acid diastereomers
Method: as §1, §2, §3, §4

[5] = SPR binding to (6R,S)-5-methyl-5,6,7,8-tetrahydrofolic acid; settings: ligand is mixture of (6R) and (6S) diastereomers, read-out: KD, (6R,S)-5-methyl-THF
GFP expression [6] = experiment: miRNA switch silencing activity on GFP in mammalian cells; assay type: cell-based; settings: folinic acid
Description: Ligand-responsive, microRNA (miRNA) switches have been developed that modulate Drosha processing. These switches integrate an aptamer into the basal segments of a miRNA. Internal loop size contained within the basal segments affects Drosha processing and therefore the levels of miRNA-mediated gene silencing. By integrating an aptamer within the basal segments, unbound aptamer can remain relatively unstructured, while ligand binding can sequester nucleotides involved in binding and inhibit Drosha processing.
Aptamer integration into this switch platform requires two integration stems; therefore, aptamer FA8-3 was chosen. Separate studies on using this aptamer in a transmitter-based switch observe that an internal loop within the aptamer could be expanded while retaining ligand binding ability. This loop was expanded to the previously identified optimal loop size and integrated into the miRNA switch that targets GFP. A single copy of the miRNA switch enables up to 2.1-fold change in GFP expression (FIG. 26b); including two copies yields up to 2.6-fold change (FIG. 26c). Additional copies of the switch would be expected to further increase the achievable activation ratio, as would specific use of (6R)-folinic acid.

[7] = SPR screen of truncated or mutated aptamers for folinic acid binding (qualitative)
Method: Full length sequences were amplified off of sequencing PCR products using primers N70-fwd-short and Biacore-N70-rev to append a poly(A) tail. Truncated or mutated sequences were synthesized by Integrated DNA Technologies or the Protein and Nucleic Acid facility (Stanford, Calif.).
as §1
Sensor chip surface generation. Experiments were performed on a Biacore X100 instrument (GE Healthcare) at 25° C. A CM5 sensor chip (GE Healthcare) was equilibrated with HBS-N buffer. The DNA linker strand (5′-AmMC6-[…]) (Integrated DNA Technologies) (SEQ ID NO:133), with an amino modified 6-carbon linker on the 5′ end, was immobilized to the chip surface. […]

GFP expression [8] = experiment: Gene-regulatory activity of ribozyme-based switches in yeast (GFP, flow cytometry); assay type: cell-based, Saccharomyces cerevisiae; settings: normalized to sTRSV Contl
Method: Plasmid and strain construction. Standard molecular biology cloning techniques were used to construct all plasmids. DNA synthesis was performed by Integrated DNA Technologies (Coralville, Iowa) or the Protein and Nucleic Acid Facility (Stanford, Calif.). All enzymes, including restriction enzymes and ligases, were obtained through New England Biolabs (Ipswich, Mass.). Ligation products were electroporated with a GenePulser XCell (Bio-Rad, Hercules, Calif.) into an E. coli DH10B strain (Invitrogen, Carlsbad, Calif.), where cells harboring cloned plasmids were maintained in Luria-Bertani media containing 50 μg/mL ampicillin (EMD Chemicals, Philadelphia, Pa.). […]
The two-color screening plasmid pCS1748; single-color plasmids harboring GFP (pCS1585) and mCherry (pCS1749) for use as compensation controls; and no-color plasmid pCS4, containing no fluorescence reporter gene, was used as the negative-control construct. […]
Cell sorting screen for functional ligand-responsive RNA switches. […] Transformation efficiencies were determined by plating serial dilutions of the transformants, and transformed cells were propagated in SC-URA media for FACS.
Two-color FACS-based screen. […] GFP was excited at 488 nm and measured with a splitter of 505 nm and bandpass filter of 525/50 nm. mCherry was excited at 532 nm and measured with a splitter of 600 nm and a bandpass filter of 610/20 nm. […]

[9] = SPR, 1:1 binding model, 25° C., selection buffer pH 7.4, 5 mM MgCl2
[10] = SPR, 25° C., selection buffer pH 7.4, 5 mM MgCl2

B1: tFA8-3: truncated (6R)-FA specific RNA aptamer, SEQ ID NO: 19 (nucleic acid)
chain: UUUGCCAACGUCUGGUCACGACCGUAGUACACUACCCCUCGAAAUCACGAGGGAGACGAGAUAGGCGGA
modifications: unmodified RNA
Kd [1]: 28.6 µM | ka, (6R,S)-5-formyl-THPteroic Acid [2]: 305000 M⁻¹ s⁻¹ | kd, (6R,S)-5-formyl-THPteroic Acid [2]: 0.0292 s⁻¹ | Kd ([2]; read-out: KD, (6R,S)-5-formyl-THPteroic Acid): 95.7 nM | Kd [3]: 1600 nM | ka, (6R)-Folinic Acid [4, 9]: 459000 M⁻¹ s⁻¹ | kd, (6R)-Folinic Acid [4, 9]: 0.0217 s⁻¹ | Kd [4, 10]: 4.73e-05 mM | Selectivity [4]: 606 | Kd [5]: 158 nM

B2: miRNA switch: folinic acid-responsive miRNA switch with aptamer FA8-3 that targets GFP, SEQ ID NO: 57 (nucleic acid)
chain: AATAACCGGTGCGATCGCGAACGGGTCCTCACTACCCCTCGAAATCACGAGGGAGACGAGATAAGAGCGACGGCGGAGCGAGCACAAGCTGGAGTACAACTATAGTGAAGCCACAGATGTATAGTTGTACTCCAGCTTGTGCCCGCCTTGCCAACCATAACGTCTGGTCACGACCGTAGTAAGGGCCCGTTTTTAATTAAATCGATTATT
modifications: Synthetic nucleic acid
change in GFP expression (GFP expression [6]; single copy of the miRNA switch): up to 2.1 fold | change in GFP expression (GFP expression [6]; two copies of the miRNA switch): up to 2.6 fold

B3: tFA8-14: truncated (6S)-FA specific RNA aptamer, SEQ ID NO: 25 (nucleic acid)
chain: CCGCGCAAGUGCAUUAACGGUGACACCGAAAGCUGGAAAGCCUGACAUCGAACGCAAAAGGCUGCGUGG
modifications: unmodified RNA
ka, (6S)-Folinic Acid ([1]; 1:1 binding model): 89200 M⁻¹ s⁻¹ | kd, (6S)-Folinic Acid ([1]; 1:1 binding model): 0.0128 s⁻¹ | Kd [1]: 0.144 µM | Kd [4, 10]: 10.2 mM | Selectivity [4]: 71,100 | folinic acid binding (qualitative) [7]: maintains binding

B4: L2b8: parent theophylline-responsive ribozyme switch, SEQ ID NO: 43 (nucleic acid)
chain: AAACAAACAAAGCTGTCACCGGATGTGCTTTCCGGTCTGATGAGTCCGTTGTCCATACCAGCATCGTCTTGATGCCCTTGGCAGGGACGGGACGGAGGACGAAACAGCAAAAAGAAAAATAAAAA
modifications: listed as DNA, chemistry not fully specified
normalized GFP expression (GFP expression [8]; absence of theophylline): ~10.8% | normalized GFP expression (GFP expression [8]; presence of 5 mM theophylline): ~36.7%
